Results on one substance are retold here after PMC6884320.

The series relates to Glu92. The series is described as follows: kinetics.

Take “AlleyCat2 (second-round evolved AlleyCat) (M144R; other substitutions not stated (includes the AlleyCat mutation that gives Glu92))”: the pKa (as a rule, the pH at which an ionisable group is half protonated) by setting is: (not stated (Figure S14 not available), Ca2+-bound, turning over leflunomide) 7.06 ± 0.02; (turning over the Kemp elimination substrate, cited from earlier work) 6.73 ± 0.03.
